Results taken from patent publication US20240400696A1.

molecular target: CD3; assay: Octet, crude lysate
Sequence (P07766 23-126): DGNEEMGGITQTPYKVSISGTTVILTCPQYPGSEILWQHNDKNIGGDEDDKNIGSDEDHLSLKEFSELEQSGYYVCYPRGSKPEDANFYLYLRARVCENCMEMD

Row | Binder | Kd [nM]
1 | AC3369 (bispecific antibody, V domains shown) VH: EVQLLESGGGIVQPGGSLKLSCAASGFTFNTYAMNWVRQAPGKGLEWAARIRSKYNNYATYYADSVKDRFTISRDDSKNTVYLQMNNLKTEDTAVYYCVRHENFGNSYVSWFAHWGQGTLVTVSS VL: ELVVTQEPSLTVSPGGTVTLTCRSSNGAVTSSNYANWVQQKPGQAPRGLIGGTNKRAPGTPARFSGSLLGGKAALTLSGVQPEDEAVYYCALWYPNLWVFGGGTKLTVL | 8.3
2 | AC3437 (bispecific antibody, V domains shown) VH: EVQLLESGGGIVQPGGSLKLSCAASGFTFNTYAMNWVRQAPGKGLEWVARIRSKYNNYATYYADSVKDRFTISRDDSKNTVYLQMNNLKTEDTAVYYCVRHENFGNSYVSWFAHWGQGTLVTVSS VL: ELVVTQEPSLTVSPGGTVTLTCRSSNGAVTSSNYANWVQQKPGQAPRGLIGGTNKRAPGTPARFSGSKLGGKAALTLSGVQPEDEAVYYCALWYPNLWVFGGGTKLTVL | 3.2
3 | AC3373 (bispecific antibody, V domains shown) VH: EVQLLESGGGIVQPGGSLKLSCAASGFTFNTYAMNWVRQAPGKGLEWTARIRSKYNNYATYYADSVKDRFTISRDDSKNTVYLQMNNLKTEDTAVYYCVRHENFGNSYVSWFAHWGQGTLVTVSS VL: ELVVTQEPSLTVSPGGTVTLTCRSSNGAVTSSNYANWVQQKPGQAPRGLIGGTNKRAPGTPARFSGSLLGGKAALTLSGVQPEDEAVYYCALWYPNLWVFGGGTKLTVL | 5.7
4 | AC3433 (bispecific antibody, V domains shown) VH: EVQLLESGGGIVQPGGSLKLSCAASGFTFNTYAMNWVRQAPGKGLEWVARIRSKYNNYATYYADSVKDRFTISRDDSKNTVYLQMNNLKTEDTAVYYCVRHENFGNSYVSWFAHWGQGTLVTVSS VL: ELVVTQEPSLTVSPGGTVTLTCRSSNGAVTSSNYANWVQQKPGQAPRGLIGGTNKRAPGTPARFSGSLQGGKAALTLSGVQPEDEAVYYCALWYPNLWVFGGGTKLTVL | 4.6
5 | AC3370 (bispecific antibody, V domains shown) VH: EVQLLESGGGIVQPGGSLKLSCAASGFTFNTYAMNWVRQAPGKGLEWEARIRSKYNNYATYYADSVKDRFTISRDDSKNTVYLQMNNLKTEDTAVYYCVRHENFGNSYVSWFAHWGQGTLVTVSS VL: ELVVTQEPSLTVSPGGTVTLTCRSSNGAVTSSNYANWVQQKPGQAPRGLIGGTNKRAPGTPARFSGSLLGGKAALTLSGVQPEDEAVYYCALWYPNLWVFGGGTKLTVL | 165
6 | AC3372 (bispecific antibody, V domains shown) VH: EVQLLESGGGIVQPGGSLKLSCAASGFTFNTYAMNWVRQAPGKGLEWSARIRSKYNNYATYYADSVKDRFTISRDDSKNTVYLQMNNLKTEDTAVYYCVRHENFGNSYVSWFAHWGQGTLVTVSS VL: ELVVTQEPSLTVSPGGTVTLTCRSSNGAVTSSNYANWVQQKPGQAPRGLIGGTNKRAPGTPARFSGSLLGGKAALTLSGVQPEDEAVYYCALWYPNLWVFGGGTKLTVL | 11.2
7 | AC3439 (bispecific antibody, V domains shown) VH: EVQLLESGGGIVQPGGSLKLSCAASGFTFNTYAMNWVRQAPGKGLEWVARIRSKYNNYATYYADSVKDRFTISRDDSKNTVYLQMNNLKTEDTAVYYCVRHENFGNSYVSWFAHWGQGTLVTVSS VL: ELVVTQEPSLTVSPGGTVTLTCRSSNGAVTSSNYANWVQQKPGQAPRGLIGGTNKRAPGTPARFSGSTLGGKAALTLSGVQPEDEAVYYCALWYPNLWVFGGGTKLTVL | 8.9
8 | AC3434 (bispecific antibody, V domains shown) VH: EVQLLESGGGIVQPGGSLKLSCAASGFTFNTYAMNWVRQAPGKGLEWVARIRSKYNNYATYYADSVKDRFTISRDDSKNTVYLQMNNLKTEDTAVYYCVRHENFGNSYVSWFAHWGQGTLVTVSS VL: ELVVTQEPSLTVSPGGTVTLTCRSSNGAVTSSNYANWVQQKPGQAPRGLIGGTNKRAPGTPARFSGSLLEGKAALTLSGVQPEDEAVYYCALWYPNLWVFGGGTKLTVL | 4.9
9 | AC3436 (bispecific antibody, V domains shown) VH: EVQLLESGGGIVQPGGSLKLSCAASGFTFNTYAMNWVRQAPGKGLEWVARIRSKYNNYATYYADSVKDRFTISRDDSKNTVYLQMNNLKTEDTAVYYCVRHENFGNSYVSWFAHWGQGTLVTVSS VL: ELVVTQEPSLTVSPGGTVTLTCRSSNGAVTSSNYANWVQQKPGQAPRGLIGGTNKRAPGTPARFSGSSLGGKAALTLSGVQPEDEAVYYCALWYPNLWVFGGGTKLTVL | 7.3

More lines, in order of falling Kd, values ahead:

Row | Kd [nM] | Binder
10 | 34300 | AC3374 (bispecific antibody, V domains shown) VH: EVQLLESGGGIVQPGGSLKLSCAASGFTFNTYAMNWVRQAPGKGLEWWARIRSKYNNYATYYADSVKDRFTISRDDSKNTVYLQMNNLKTEDTAVYYCVRHENFGNSYVSWFAHWGQGTLVTVSS VL: ELVVTQEPSLTVSPGGTVTLTCRSSNGAVTSSNYANWVQQKPGQAPRGLIGGTNKRAPGTPARFSGSLLGGKAALTLSGVQPEDEAVYYCALWYPNLWVFGGGTKLTVL
11 | 121 | AC3426 (bispecific antibody, V domains shown) VH: EVQLLESGGGIVQPGGSLKLSCAASGFTFNTYAMNWVRQAPGKGLEWVARIRSKYNNYATYYADSVKDRFTISRDDSKNTVGLQMNNLKTEDTAVYYCVRHENFGNSYVSWFAHWGQGTLVTVSS VL: ELVVTQEPSLTVSPGGTVTLTCRSSNGAVTSSNYANWVQQKPGQAPRGLIGGTNKRAPGTPARFSGSLLGGKAALTLSGVQPEDEAVYYCALWYPNLWVFGGGTKLTVL
12 | 71.5 | AC3371 (bispecific antibody, V domains shown) VH: EVQLLESGGGIVQPGGSLKLSCAASGFTFNTYAMNWVRQAPGKGLEWGARIRSKYNNYATYYADSVKDRFTISRDDSKNTVYLQMNNLKTEDTAVYYCVRHENFGNSYVSWFAHWGQGTLVTVSS VL: ELVVTQEPSLTVSPGGTVTLTCRSSNGAVTSSNYANWVQQKPGQAPRGLIGGTNKRAPGTPARFSGSLLGGKAALTLSGVQPEDEAVYYCALWYPNLWVFGGGTKLTVL
13 | 40.2 | AC3367 (bispecific antibody, V domains shown) VH: EVQLLESGGGIVQPGGSLKLSCAASGFTFNTYAMNWVRQAPGKGLEDVARIRSKYNNYATYYADSVKDRFTISRDDSKNTVYLQMNNLKTEDTAVYYCVRHENFGNSYVSWFAHWGQGTLVTVSS VL: ELVVTQEPSLTVSPGGTVTLTCRSSNGAVTSSNYANWVQQKPGQAPRGLIGGTNKRAPGTPARFSGSLLGGKAALTLSGVQPEDEAVYYCALWYPNLWVFGGGTKLTVL
14 | 18.1 | AC3368 (bispecific antibody, V domains shown) VH: EVQLLESGGGIVQPGGSLKLSCAASGFTFNTYAMNWVRQAPGKGLEEVARIRSKYNNYATYYADSVKDRFTISRDDSKNTVYLQMNNLKTEDTAVYYCVRHENFGNSYVSWFAHWGQGTLVTVSS VL: ELVVTQEPSLTVSPGGTVTLTCRSSNGAVTSSNYANWVQQKPGQAPRGLIGGTNKRAPGTPARFSGSLLGGKAALTLSGVQPEDEAVYYCALWYPNLWVFGGGTKLTVL
15 | 9.8 | AC3425 (bispecific antibody, V domains shown) VH: EVQLLESGGGIVQPGGSLKLSCAASGFTFNTYAMNWVRQAPGKGLEWVARIRSKYNNYATYYADSVKDRFTISRDDSKNTVDLQMNNLKTEDTAVYYCVRHENFGNSYVSWFAHWGQGTLVTVSS VL: ELVVTQEPSLTVSPGGTVTLTCRSSNGAVTSSNYANWVQQKPGQAPRGLIGGTNKRAPGTPARFSGSLLGGKAALTLSGVQPEDEAVYYCALWYPNLWVFGGGTKLTVL
16 | 9.6 | AC3427 (bispecific antibody, V domains shown) VH: EVQLLESGGGIVQPGGSLKLSCAASGFTFNTYAMNWVRQAPGKGLEWVARIRSKYNNYATYYADSVKDRFTISRDDSKNTVSLQMNNLKTEDTAVYYCVRHENFGNSYVSWFAHWGQGTLVTVSS VL: ELVVTQEPSLTVSPGGTVTLTCRSSNGAVTSSNYANWVQQKPGQAPRGLIGGTNKRAPGTPARFSGSLLGGKAALTLSGVQPEDEAVYYCALWYPNLWVFGGGTKLTVL
17 | 8.3 | AC3438 (bispecific antibody, V domains shown) VH: EVQLLESGGGIVQPGGSLKLSCAASGFTFNTYAMNWVRQAPGKGLEWVARIRSKYNNYATYYADSVKDRFTISRDDSKNTVYLQMNNLKTEDTAVYYCVRHENFGNSYVSWFAHWGQGTLVTVSS VL: ELVVTQEPSLTVSPGGTVTLTCRSSNGAVTSSNYANWVQQKPGQAPRGLIGGTNKRAPGTPARFSGSNLGGKAALTLSGVQPEDEAVYYCALWYPNLWVFGGGTKLTVL
18 | 7.1 | AC3429 (bispecific antibody, V domains shown) VH: EVQLLESGGGIVQPGGSLKLSCAASGFTFNTYAMNWVRQAPGKGLEWVARIRSKYNNYATYYADSVKDRFTISRDDSKNTVYLQMNQLKTEDTAVYYCVRHENFGNSYVSWFAHWGQGTLVTVSS VL: ELVVTQEPSLTVSPGGTVTLTCRSSNGAVTSSNYANWVQQKPGQAPRGLIGGTNKRAPGTPARFSGSLLGGKAALTLSGVQPEDEAVYYCALWYPNLWVFGGGTKLTVL
19 | 6.1 | AC3435 (bispecific antibody, V domains shown) VH: EVQLLESGGGIVQPGGSLKLSCAASGFTFNTYAMNWVRQAPGKGLEWVARIRSKYNNYATYYADSVKDRFTISRDDSKNTVYLQMNNLKTEDTAVYYCVRHENFGNSYVSWFAHWGQGTLVTVSS VL: ELVVTQEPSLTVSPGGTVTLTCRSSNGAVTSSNYANWVQQKPGQAPRGLIGGTNKRAPGTPARFSGSLDGGKAALTLSGVQPEDEAVYYCALWYPNLWVFGGGTKLTVL
20 | 5.9 | AC3428 (bispecific antibody, V domains shown) VH: EVQLLESGGGIVQPGGSLKLSCAASGFTFNTYAMNWVRQAPGKGLEWVARIRSKYNNYATYYADSVKDRFTISRDDSKNTVYLQMNELKTEDTAVYYCVRHENFGNSYVSWFAHWGQGTLVTVSS VL: ELVVTQEPSLTVSPGGTVTLTCRSSNGAVTSSNYANWVQQKPGQAPRGLIGGTNKRAPGTPARFSGSLLGGKAALTLSGVQPEDEAVYYCALWYPNLWVFGGGTKLTVL
21 | 5.2 | AC3431 (bispecific antibody, V domains shown) VH: EVQLLESGGGIVQPGGSLKLSCAASGFTFNTYAMNWVRQAPGKGLEWVARIRSKYNNYATYYADSVKDRFTISRDDSKNTVYLQMNYLKTEDTAVYYCVRHENFGNSYVSWFAHWGQGTLVTVSS VL: ELVVTQEPSLTVSPGGTVTLTCRSSNGAVTSSNYANWVQQKPGQAPRGLIGGTNKRAPGTPARFSGSLLGGKAALTLSGVQPEDEAVYYCALWYPNLWVFGGGTKLTVL
22 | 4.8 | AC3430 (bispecific antibody, V domains shown) VH: EVQLLESGGGIVQPGGSLKLSCAASGFTFNTYAMNWVRQAPGKGLEWVARIRSKYNNYATYYADSVKDRFTISRDDSKNTVYLQMNSLKTEDTAVYYCVRHENFGNSYVSWFAHWGQGTLVTVSS VL: ELVVTQEPSLTVSPGGTVTLTCRSSNGAVTSSNYANWVQQKPGQAPRGLIGGTNKRAPGTPARFSGSLLGGKAALTLSGVQPEDEAVYYCALWYPNLWVFGGGTKLTVL
